From article PMC11289669, “BAR502/fibrate conjugates: synthesis, biological evaluation and metabolic profile” (Frontiers in Chemistry, 2024)
No end group written: not given here.

T1: PPARα LBD GST fused
T1 sequence (Q07869 whole entry, species assumed, looked up): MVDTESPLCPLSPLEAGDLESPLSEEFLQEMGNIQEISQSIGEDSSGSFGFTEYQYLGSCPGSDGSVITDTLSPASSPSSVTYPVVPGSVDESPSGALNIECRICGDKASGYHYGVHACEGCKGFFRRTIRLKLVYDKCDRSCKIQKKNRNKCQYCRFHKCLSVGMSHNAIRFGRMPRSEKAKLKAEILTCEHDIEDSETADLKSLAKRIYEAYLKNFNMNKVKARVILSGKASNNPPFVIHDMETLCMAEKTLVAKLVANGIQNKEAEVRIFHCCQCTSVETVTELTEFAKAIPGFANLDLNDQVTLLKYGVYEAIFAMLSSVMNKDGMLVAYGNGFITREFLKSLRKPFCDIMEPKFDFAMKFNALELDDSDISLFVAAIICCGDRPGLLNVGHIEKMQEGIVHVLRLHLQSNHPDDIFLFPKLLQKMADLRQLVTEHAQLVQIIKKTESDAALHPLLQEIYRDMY

T2: FXR-LBD GST-fused
T2 sequence (Q96RI1 whole entry, species assumed, looked up): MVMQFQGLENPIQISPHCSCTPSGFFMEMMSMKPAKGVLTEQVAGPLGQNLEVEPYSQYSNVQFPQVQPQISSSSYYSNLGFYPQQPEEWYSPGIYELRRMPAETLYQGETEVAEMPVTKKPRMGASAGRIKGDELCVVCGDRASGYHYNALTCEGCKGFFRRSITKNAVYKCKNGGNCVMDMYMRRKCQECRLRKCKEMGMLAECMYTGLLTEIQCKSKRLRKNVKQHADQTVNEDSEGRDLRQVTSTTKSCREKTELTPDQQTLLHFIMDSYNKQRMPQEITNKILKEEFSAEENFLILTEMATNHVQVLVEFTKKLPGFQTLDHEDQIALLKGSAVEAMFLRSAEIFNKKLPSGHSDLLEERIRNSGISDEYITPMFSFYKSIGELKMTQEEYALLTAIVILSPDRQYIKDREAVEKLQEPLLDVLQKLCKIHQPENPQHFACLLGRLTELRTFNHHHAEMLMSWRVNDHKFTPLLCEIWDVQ


Assays:
U937 cells = test: Pro-inflammatory gene expression (qRT-PCR) in LPS-activated U937 cells; assay type: cell-based, human; settings: LPS 100 ng/mL, 18 h, BAR502 and clofibrate 5 and 10 μM, compound 1 10 μM
Protocol: U937 cell line were cultured in RPMI 1640 supplemented with 10% FBS, 1% glutamine, and 1% penicillin/streptomycin and were regularly passaged to maintain exponential growth. After 24 h of starvation cells were classically activated with LPS (100 ng/mL; Sigma-Aldrich, St. Louis, MO), and exposed or not to BAR502, clofibrate and compound 1 at the concentration of 5 and 10 μM for 18 h. At the end of the experiment the cells were recovered. Total mRNA extraction from U937 and 3T3.L1 was performed using Tri-Reagent (Zymo Research) and Direct-zolTM RNA MiniPrep w/Zymo-SpinTM IIC Columns (Zymo Research, Irvine, CA). After purification from genomic DNA using DNase I (Thermo Fisher Scientific, Waltham, MA), 1 μg of RNA from each sample was reverse transcribed using Kit […] Basic (Nippon Genetics, […] 20-μL of reaction volume; 50 ng of cDNA was amplified in a 20-μL solution containing 200 nM each primer and 10 μL of PowerUpTM SYBRTM Green Master Mix (Thermo Fisher Scientific, Waltham, MA). All reactions were performed in triplicate using the following thermal cycling conditions: 3 min at 95°C, followed by 40 cycles of 95°C for 15 s, 56°C for 20 s, and 72°C for 30 s, using a QuantStudio 3 system (Applied Biosystems, Foster City, CA). The relative mRNA expression was calculated accordingly to the ΔCt method. Primers were designed using the software PRIMER3 (http://frodo.wi.mit.edu/primer3/) using published data obtained from the NCBI database. The primer used were as following (forward and reverse): hGAPDH (for […]-1β (for [NT], hIL6 (for [NT] hCXCL2 (for [NT] hTNFα; (for [NT], mAdiponectin (for […]ɤ (for [NT], mCebp (for [NT]

[1] = Microsomal stability in human liver microsomes; assay type: in vitro ADME
Protocol: Chemical stability in HCl Buffer, PBS buffer and culture medium (EMEM) was evaluated by LC-MS dissolving compound 1 at 10 μM (final concertation) in cited buffers and injecting aliquots removed from incubations at different time points. Microsomal stability was evaluated employing 50 mM potassium phosphate buffer (pH 7.4) containing 0.15 mg of Human liver microsomes (Sigma-Aldrich, St. Louis, MO, United States) 5 mM MgCl2, 1 mM NADPH, 5 mM glucose 6-phosphate, 0.4 U·mL^−1 glucose 6-phosphate dehydrogenase. Compounds were tested at 1 µM final concentration. Aliquots, removed at different time points, were diluted with ice-cold acetonitrile and analyzed by LC-MS.

PPARα LBD GST fused = molecular target: T1, PPARα LBD GST fused; test: AlphaScreen or HTRF; coactivator recruitment; 20 nM GST-PPARα-LBD, 60 nM biotinylated SRC1 peptide, 20 μg/mL donor and acceptor beads; 50 mM MOPS, 50 mM NaF, 0.05 mM CHAPS, 0.05% BSA, pH 7.4; 25 μL, 384 wells; compounds at 50 μM for efficacy (% vs. fenofibrate)
FXR-LBD GST-fused = molecular target: T2, FXR-LBD GST-fused; test: AlphaScreen or HTRF; coactivator recruitment; 10 nM GST-FXR-LBD, 30 nM biotinylated SRC1 peptide, 20 μg/mL donor and acceptor beads; 50 mM Tris-HCl pH 7.4, 20 mM KCl, 1 mM DTT, 0.1% BSA; 25 μL, 384 wells; compounds at 10 μM for efficacy (% vs. CDCA), concentration-response for EC50

Molecule	IL-1β mRNA expression (U937 cells)	IL-6 mRNA expression (U937 cells)	Time to conversion in clofibric acid in human microsomes [1]	efficacy of SRC-1 recruitment with BAR502 (% vs. fenofibrate) (% vs. fenofibrate) (PPARα LBD GST fused)	efficacy of SRC-1 recruitment with BAR505 (% vs. fenofibrate) (% vs. fenofibrate) (PPARα LBD GST fused)	EC50 of compound 1 for SRC-1 recruitment (the compound is titrated) (FXR-LBD GST-fused)	EC50 of compound 3 for SRC-1 recruitment (the compound is titrated) (FXR-LBD GST-fused)	EC50 of the compound BAR502 for SRC-1 recruitment (the compound is titrated) (FXR-LBD GST-fused)	efficacy of SRC-1 recruitment with BAR502 (% vs. CDCA) (FXR-LBD GST-fused)	efficacy of SRC-1 recruitment with compound 1 (% vs. CDCA) (FXR-LBD GST-fused)	efficacy of SRC-1 recruitment with compound 3 (% vs. CDCA) (FXR-LBD GST-fused)
CCOC(=O)C(C)(C)Oc1ccc(Cl)cc1 [clofibrate]	reducing the expression of pro-inflammatory cytokines	reducing the expression of pro-inflammatory cytokines	≤ 30 min								
CPSSHSSLTERHKILHRLLQEGSPS (also: biotin, position not given here) [biotinylated SRC1 peptide]				36	40	3.4 µM	17.9 µM	0.69 µM	153 % vs. CDCA	79 % vs. CDCA	48 % vs. CDCA
